Source: patent publication US20180282808A1 (ADAPTIVE BIOTECHNOLOGIES, published 2018)

B1: eJH30_WT1C_5 (TCR, V domains shown)
V domain 1: GENVEQHPSTLSVQEGDSAVIKCTYSDSASNYFPWYKQELGKGPQLIIDIRSNVGEKKDQRIAVTLNKTAKHFSLHITETQPEDSAVYFCAAGGRDDKIIFGKGTRLHILP
V domain 2: EPEVTQTPSHQVTQMGQEVILRCVPISNHLYFYWYRQILGQKVEFLVSFYNNEISEKSEIFDDQFSVERPDGSNFTLKIRSTKLEDSAMYFCASSERLGTMAYNSPLHFGNGTRLTVTE
B2: eJH64_WT1C_6 (TCR, V domains shown)
Valpha: AQSVAQPEDQVNVAEGNPLTVKCTYSVSGNPYLFWYVQYPNRGLQFLLKYITGDNLVKGSYGFEAEFNKSQTSFHLKKPSALVSDSALYFCAVRDMRYGGATNKLIFGTGTLLAVQP
Vbeta: ETGVTQTPRHLVMGMTNKKSLKCEQHLGHNAMYWYKQSAKKPLELMFVYSLEERVENNSVPSRFSPECPNSSHLFLHLHTLQPEDSALYLCASSQDGLAGAASFNNEQFFGPGTRLTVL
B3: eJH30_WT1C_8 (TCR, V domains shown)
V domain 1: GQQLNQSPQSMFIQEGEDVSMNCTSSSIFNTWLWYKQEPGEGPVLLIALYKAGELTSNGRLTAQFGITRKDSFLNISASIPSDVGIYFCAGRGSQGNLIFGKGTKLSVKP
V domain 2: DTAVSQTPKYLVTQMGNDKSIKCEQNLGHDTMYWYKQDSKKFLKIMFSYNNKELIINETVPNRFSPKSPDKAHLNLHINSLELGDSAVYFCASSHWQETQYFGPGTRLLVLE

How the values were obtained:
[1] = target: WT1 peptide (…; SEQ ID NO: 97) presented on peptide-pulsed T2 cells (UniProt P61769 21-119, limits assumed); test: cell-based or functional assay
[2] = target: WT1 peptide (…; SEQ ID NO: 97) presented on peptide-pulsed T2 cells (UniProt P61769); test: cell-based or functional assay; conditions: scale: nM
[3] = target: T1, WT1 (Wilms' tumor antigen-1) peptide on HLA-A*02:01 (human); test: full-length, on cells
T1 peptide: YMLDLQPETT

| Binder | EC50 (nM) of functional avidity: CD69 MFI of TCR+ JRT3 cells against WT1-pep concentration pulsed on T2 cells [1] | EC50 of functional avidity: CD69 MFI of TCR+ cells against WT1 10mer peptide concentration pulsed on T2 cells [2] | EC50 of peptide [3] |
| --- | --- | --- | --- |
| B1 | 51.9 nM |  |  |
| B2 |  | 0.7 | 0.7 nM |
| B3 | 10.9 nM |  |  |
